Test results published in the nanobody polyreactivity screen of Harvey et al. (2022).

Assay: yeast display, Sf9 membrane polyspecificity reagent, FACS + sequencing; frameworks hold sequencing errors
Summary of the method: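 Sorting gates, low and high (top ~1%), were placed on anti-HA fluorescence to track expression and on streptavidin fluorescence to track reagent binding. A clone's polyreactivity label is taken from the gate it came out of. The reagent was 10% biotinylated, detergent-solubilized Sf9 membrane, applied for 1 hour at 4 °C to galactose-induced yeast display cells.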

| Sequence | polyreactivity (PSR sort gate) |
| --- | --- |
| QVQLVESGGGLVQAGGSLRLSCAASGRTFGYYGLGWYRQAPGKERELVASINFSSGSTFYADSVKGRFTISRDNAKNTVYLQMNSLKPEDTAVYYCAARTDVGWYSRYGYWGQGTQVTVSS | low polyreactivity |
| QVQLVESGGGLVQAGGSLRLSCAASGRTFHFDAMGWYRQAPGKERELVASITWSAVRTYYADSVKGRFTISRDNAKYTVYLQMNSLKQEDTAVYYCAIDWDYRLMDYWGQGTQVTVSS | low polyreactivity |
| QVQLVESGGGLVQAGGSLRLSCAASGRTFHGYALGWYRQAPGKERELVARINWSDGRTYYADSVKGRFTISRDNAKNTVYLQMNSLKPEDTAVYYCAADKTVSYAPAWYYYWGQGTQVTVSS | low polyreactivity |
| QVQLVESGGGLVQAGGSLRLSCAASGRTFHKYAMGWYRQAPGKEWELVAAISNGGRTYYADSVKGRFTISRDNAKNTVYLQMNSLKPEDTAVYYCNADRTWKGRQYDYWGQGTQVTVSS | high polyreactivity |
| QVQLVESGGGLVQAGGSLRLSCAASGRTFHRYAMGWYRQAPGKERELVAAITSSGGSTNYADSVKGRFTISRDYAKNTVYLQMNSLKPEDTAVYYCATDRYRYTSHPWSRGFDYWGHGTQVTVSS | low polyreactivity |
| QVQLVESGGGLVQAGGSLRLSCAASGRTFHRYTMGWYRQAPGKERELVASISRSGGSTYYADSVKGRFTISRDNAKNTVYLQMNSLKPEDTAVYYCAARVSRRGTWYDYWGQGTQVTVSS | high polyreactivity |
| QVQLVESGGGLVQAGGSLRLSCAASGRTFHTYAIGWYRQAPGKERELVAAITRRGGSTYYADSVKGRFTISRDNAKNTVYLQMNSLKPEDTAVYYSAAPWYGYWGQGTQVTVSS | high polyreactivity |
| QVQLVESGGGLVQAGGSLRLSCAASGRTFHVYAMGWYRQAPGKERELVAAITWSGDSTYYADSVKGRFTISRDNAKNTVYLQMNSLNTEDTAVYYCAASKFWKYDYWGQGTQVTVSS | low polyreactivity |
| QVQLVESGGGLVQAGGSLRLSCAASGRTFHYNAMGWYRQAPGKERELVAAISRDGGSTDYADSVKGRFTISRDNAKNTVYLQMNSLKPEDTAVYYCAAPIGKQEFSRDYDYWGQGTQVTVSS | low polyreactivity |
| QVQLVESGGGLVQAGGSLRLSCAASGRTFIANAMGWYRQAPGKERELVAVITLNGGSTYYADSVKGRFTISRDNAKNTVYLQMNSLKPEDSAVYYCDAGRYYNLRATHGYWRQGTQVTVSS | low polyreactivity |
| QVQLVESGGGLVQAGGSLRLSCAASGRTFIGYAMAWYRQAPGKEWELVAAISARGGRTYYADSVKGRFTISRDNAKNTVYLQMNSLKPEETAVYYCAAVRVKHSGYDYWGQGTQVTVSS | high polyreactivity |
| QVQLVESGGGLVQAGGSLRLSCAASGRTFIKNAMGWYRQAPGKERELVATISKRGGRTYYADSVKGRFTISRDNAKNTVYLQMNSLKPEDTAVYYCAARYRKSGLDKYWGQGTQVTVSS | high polyreactivity |
| QVQLVESGGGLVQAGGSLRLSCAASGRTFIKYAMGWYRPAPGKERALVAAISRNGGSTNYADSVKGRFTISRDNAKNTVDLQMNSLKPEDTAVYYCAAVGTVSSTVGYNYWGQGTQVTVSS | high polyreactivity |
| QVQLVESGGGLVQAGGSLRLSCAASGRTFINYAKGWYRQAPGKERELVAAITTGGGGTYYADSVKGRFTISRDNAKNTVYLQMNSLKPEDTAVYYCAAEGTGYWGIVGYYYWGQGTQVTVSS | low polyreactivity |
| QVQLVESGGGLVQAGGSLRLSCAASGRTFIPYAMGWYRQAPGKERELVAAIRTTGGSTNYADSVKGRFTISRDNAKNTVYLQMNSLKPEDTAVYYCAATSRQRPYDYWGQGTQVTVSS | high polyreactivity |
| QVQLVESGGGLVQAGGSLRLSCAASGRTFIRNVMGWYRQAPGKERELVAGITGGGNTYYADSVKGRFTISRDNAKNTVYLQMNSLKPEDTAVYECAVRYPSYGLSYVRYGYWGQVTQVTVSS | high polyreactivity |
| QVQLVESGGGLVQAGGSLRLSCAASGRTFISNAMGWYRQAPGKERELVAAITSTGGRTYYADSVKGRFTISRDNAKNTVYLQMNSLKPEDTAVYYCNTGKRRFYSMDYWGQGTQVTVSS | high polyreactivity |
| QVQLVESGGGLVQAGGSLRLSCAASGRTFISNAMGWYRQAPGKERELVATISRRGGITYYADSVKGRFTISRDNSKNTVYLQMNSLKPEDTAVFYCNARNYPQGIYYWGQGTQVTLSS | high polyreactivity |
| QVQLVESGGGLVQAGGSLRLSCAASGRTFISYAMGWYRQAPGKERELVAAIDFSDGSTYYADSVKGRFTISRDNAKNTVYLQMNSLKPEDTAVYYCAADDPGLGYWSLTWYDYWGQGTQVTVSS | high polyreactivity |
| QVQLVESGGGLVQAGGSLRLSCAASGRTFIVNTMRWYRQAPGKDRELVAAITARGGRTYYADSEKGRFTISRDNAKNTVYLQLNSLKPEDTAVYYCNARTPPREAERYYWGQGTQVTVSS | low polyreactivity |
| QVQLVESGGGLVQAGGSLRLSCAASGRTFIWNAMGWYRQAPGKERELVADISIRGGSTNYADSVKGRFTISRDNAKNTVYLQMNSLKPEDTAVYYCAADYYDSGNDYWGQGTQVTVSS | low polyreactivity |
| QVQLVESGGGLVQAGGSLRLSCAASGRTFIYNTMGWYRQAPGKERELFAAISSGGSTNYADSVKGRFTISRDNAKNTVYLQMNSLKPEDTAVYYCATQGLSAPFDGFVNSRFDHRGQGTQVTVSS | low polyreactivity |

| Sequence | polyreactivity (PSR sort gate) |
| --- | --- |
| QVQLVESGGGLVQAGGSLRLSCAASGRTFIYNVMGWYRQAPGKERELVAAISQRGGSTYYADSVKGRFTISRDNAKNTVYLQMNSLKPEDTAVYYCAAESYYKKWSDYWGQGTQVTVSS | high polyreactivity |
| QVQLVESGGGLVQAGGSLRLSCAASGRTFIYYAMGWYRQAPGKERELVATIRGSSTRTYYADSVKGRFTISRDNAKNTVYLQMNSLKPEDTAVYYCAARGTSRKYYYWGQGTQVTVSS | high polyreactivity |
| QVQLVESGGGLVQAGGSLRLSCAASGRTFIYYDKGWYRQAPGKERDLVAAIRQRGDNTYYADSVKGSFTISRDNAKNTVYLKMKSLKPDDTAVYFCAAVNYLSYRYGYSWSYPGGGYWGQGTQVTVSS | high polyreactivity |
| QVQLVESGGGLVQAGGSLRLSCAASGRTFKANAMGWYRQAPGKERELVAAISYSGGNTYYADSVKGRFTISRDNAKNTVYLQMNSLKPEDTAVYYCAARRGYGRENQFYSWGQGTQVTVSS | high polyreactivity |
| QVQLVESGGGLVQAGGSLRLSCAASGRTFKAYAMGWYRQAAGKEREFVPAITKRGGSTYYADSVKGRFTISRDNAKNTVYLQMNSLKPEDTAVYYCAVGLGRYTHTSVPIPSYDYWGQGTQVTVSS | high polyreactivity |
| QVQLVESGGGLVQAGGSLRLSCAASGRTFKDYAKGWYRHAPGKERELVARINGSGGSTYYADSVKGRFTISRDTAKNSVYLQMNSLKPEDTAVYYCGKDARRRTSILSGGRHYDYWGQGTQVTVSS | low polyreactivity |
| QVQLVESGGGLVQAGGSLRLSCAASGRTFKDYAMGWDIQEPGKERELVAAISWSGGDTYYADSVKGRFTISRDNAKNTVYLQMNSLKPEDTAVYYCNADPSGVFFYSLEFDYWGQGTQVTVSS | low polyreactivity |
| QVQLVESGGGLVQAGGSLRLSCAASGRTFKFYAMGWYRQAPGKERELVARITSNSGSTYYADSVKGRFTISRDNAKHTVYLQLNSLKPEETAVYYCNARYGYTYRTFRYDYWGQGSQVTVSS | high polyreactivity |
| QVQLVESGGGLVQAGGSLRLSCAASGRTFKFYAMGWYRQAPGKERELVARITSNSGSTYYADTVKVRYTISRDNAKNTVYLQMNSLKPEDTAVYYCAARGRYRQFNYWGQGTQVTVSS | high polyreactivity |
| QVQLVESGGGLVQAGGSLRLSCAASGRTFKFYAMGWYRQAPGKERELVATISSRGGNTFYADSVKGRFTISRDNAKNTVYLQMNSLIPEDTAVYYCAARRGVRKYPSAGYEYWGQGTQVTVSS | high polyreactivity |
| QVQLVESGGGLVQAGGSLRLSCAASGRTFKKYAMGWYRQAPGKERELVAAITSSGGSTYYADSVKGRFTISRDNAKNTVYLQMNSLKPEDTAVYYCNTVYRHRQRAKYNYWGQGTQVTVSS | high polyreactivity |
| QVQLVESGGGLVQAGGSLRLSCAASGRTFKKYAMGWYRQAPGKERELVAGITGSGGSTYYADSVKGRFTISRDNAKNTVYLQMNSLKPEDTAVYYCAAYAYGGWHSQDGGNYWGQGTQVTVSS | low polyreactivity |
| QVQLVESGGGLVQAGGSLRLSCAASGRTFKKYAMGWYRQAPGKVREFVARITYSAGSTYYADSVKGRFTISRDNAKNTVYLQMNSLKPEDTAVYYCARRYASSGPRWYSRHGEYDYWGQGTQVTVSS | low polyreactivity |
| QVQLVESGGGLVQAGGSLRLSCAASGRTFKNYAMGWYRQAPGKERELVAAITSGGITNYADSVKGRFTISRDNAKNTVYLQMNSLKPEDTAVYYCNTRRGWRDFDYWGQGTQVTVSS | low polyreactivity |
| QVQLVESGGGLVQAGGSLRLSCAASGRTFKPYAMGWYRQARGKERELVAAISTRGGSTYYADSVKGRFTISRDNAKNTVYLQMNSLKPEDTAVYYCAATQPGRDYDYWGQGTQVTVSS | low polyreactivity |
| QVQLVESGGGLVQAGGSLRLSCAASGRTFKRYAMGWYRQAPGKERELVAAITFSGGSTYYADSVKGRFTISRDNAKNTVYLQRNSLKPEDTAVYYCAADGEHYPWYYYWGQGTQVTVSS | high polyreactivity |
| QVQLVESGGGLVQAGGSLRLSCAASGRTFKRYAMGWYRQAPGKERELVAGISRGGNTNYADSVKGRFTISRDNAKNTVYLQMNSLNPEDTAVYYCNKDYSFEYSLRNRDYWGQGTQVTVSS | low polyreactivity |
| QVQLVESGGGLVQAGGSLRLSCAASGRTFKSNAMGWYRQAPGKERELVATINYSATSTYYADSVKGSFTISRDNAKNTVYLQMNSLKPEDTAVYYCNVACGYSYRGLDYWGQVTQVTVSS | high polyreactivity |
| QVQLVESGGGLVQAGGSLRLSCAASGRTFKTYAMAWYRQAPGKERELVAAISRDGRTYYADSVKGRFTISRDNAKNTVYLQMNSLKPEDTAVYYCNKRSYRNGDYWGQGTQVTVSS | low polyreactivity |
| QVQLVESGGGLVQAGGSLRLSCAASGRTFKTYTMGWYRQEPGKERELVAVISSGGGSTNYADSVKGRFTISRDKAKNTVNLQMNSRKPEDTAVYYCAARKPGRPKYRYDYWGQGSQVTVSS | low polyreactivity |
| QVQLVESGGGLVQAGGSLRLSCAASGRTFKWYAMGWYRQAPGKERELVAAITTGGNTYYADSVKGRFTISRDNAKNTVYLQMNSLTPEDTAVYYCARVPTQGYNPYEYWGQGTQVTVSS | low polyreactivity |
